Experimental data taken from paper PMC3013631.

Target: Irgb6 (mouse (endogenous in macrophages)) (UniProt Q62293)
Assay: co-IP

Sequence of UniProt Q62293 (Q62293 whole entry): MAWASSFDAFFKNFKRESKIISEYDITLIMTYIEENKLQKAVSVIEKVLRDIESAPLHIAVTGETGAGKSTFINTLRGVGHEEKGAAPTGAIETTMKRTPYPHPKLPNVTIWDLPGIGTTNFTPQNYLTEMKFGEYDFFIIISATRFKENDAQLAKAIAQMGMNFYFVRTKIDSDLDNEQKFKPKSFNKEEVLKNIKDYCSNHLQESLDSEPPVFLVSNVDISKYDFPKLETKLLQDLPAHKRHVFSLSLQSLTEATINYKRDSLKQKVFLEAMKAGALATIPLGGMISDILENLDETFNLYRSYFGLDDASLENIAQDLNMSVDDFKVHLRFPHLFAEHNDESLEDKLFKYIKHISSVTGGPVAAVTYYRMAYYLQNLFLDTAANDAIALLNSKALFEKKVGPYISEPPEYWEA

Substance “kinase-dead ROP18 D/A (Ty-tagged; expressed in transgenic type III parasites) (from UniProt Q2PAY2 1-554) (enzyme)” has a fold change of co-precipitated ROP18 against active ROP18 of 3 fold.
